For this experiment, the target named is PD-L1 (Homo sapiens, UniProt Q9NZQ7). Briefly: Immunohistochemistry using Cy5-peptide (fluorescence) on FFPE tissues and lung cancer TMA. Set-up: Seven PD-L1 expressing NSCLC patient tissues were obtained from the MU OneHealth tissue bank; tissue MU OneHealth tissue bank; U.S. Biomax (TMA) LC1923; host or cells: FFPE placenta, seven NSCLC patient tissues, 192-case lung cancer tissue microarray, four Hodgkin's lymphoma cases. It counts as binding. The text has this: PD-L1 expression was investigated in the same seven FFPE tissues and 192 lung cancer cases on a microarray using our peptide conjugated with Cy5 fluorophore. A lung cancer tissue microarray (TMA) was purchased from U.S. Biomax that contains 192 separate cases of various types of lung cancers (LC1923, biomax.us). In addition, seven NSCLC patient tissues were obtained from the Mizzou OneHealth tissue bank and de-identified according to IRB protocols. Paraffin-embedded tissue slides were baked overnight, then de-waxed and rehydrated according to standard protocols. Tissue sections were then subjected to antigen retrieval in EDTA at 95° C. for 20 minutes in EDTA ([…]). The solution was cooled for an additional 20 minutes on the bench top prior to buffer rinse. Tissues were then incubated with 15 μM Cy5-conjugated peptide for 2 hours in a humid chamber in the dark at RT. After 2 hours, slides were washed with buffer. The slides were then mounted using nucleus-specific DAPI counterstain and cover slipped. Slides were then imaged using fluorescence microscopy on a Leica DM5500 and compared to the same sections which had been stained with the Ventana antibody. For fluorescent analysis, DAPI channels and Cy5 channels were overlaid to image cell nuclei and PD-L1 expression, respectively.
Staining of the placenta and seven selected NSCLC patient tissues was again compared using the SP263 antibody and RK-10-Cy5 which was conjugated with a Cy5 fluorophore (FIG. 16). To stain with the fluorescent PD-L1 peptide, antigen retrieval was performed and tissue slides were treated with 15 μM fluorescent peptide in a dark, humid chamber for 2 hours, washed with buffer, then counter-stained and mounted with DAPI nucleus stain. Peptide-stained slides were imaged on a Leica DM5500 using channels specific for DAPI or Cy5, and channels were overlaid to examine PD-L1 expression. To confirm the data from the IHC stained tissues, the same seven patient tissues A-G were stained with RK-10-Cy5 (FIG. 10). […]

Ends that are not written are not given here.

Chain of PD-L1 (Q9NZQ7 19-290): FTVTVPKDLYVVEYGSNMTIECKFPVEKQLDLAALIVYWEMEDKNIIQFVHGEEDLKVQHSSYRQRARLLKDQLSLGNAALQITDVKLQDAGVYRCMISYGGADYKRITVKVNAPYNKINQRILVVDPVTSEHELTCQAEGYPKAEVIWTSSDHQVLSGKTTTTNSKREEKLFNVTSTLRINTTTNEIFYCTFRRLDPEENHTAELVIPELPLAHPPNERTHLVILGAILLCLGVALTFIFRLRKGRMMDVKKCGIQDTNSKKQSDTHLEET

As for “Cy5-GSGSGSTYLCGAISLAPKAQIKESL [RK-10-Cy5]”, the “tumor staining in lung cancer tissue microarray” value (192 lung cancer cases (U.S. Biomax TMA), majority of cases, FIG. 11 panels d, e, f) is “consistent, specific staining in tumor cells and immune infiltrate”. For the same substance, the “staining of Reed-Sternberg cells” value (four Hodgkin's lymphoma patient samples, FIG. 13) is recorded as “showed PD-L1 staining”. In addition, the “fluorescent tumor staining in NSCLC patient tissues” value (seven NSCLC patient tissues A-G, 15 μM fluorescent peptide, 2 hours, FIG. 10) is given as “stained many areas of tumor that the SP263 antibody did not”.
